Laboratory results as given in the supplement of paper PMC9732359.
± gives the uncertainty stated by the source.

Experiment: protein stability index of a GFP-peptide fusion (yeast GPS) (PSI 1-4); higher = more stable; sorted into four equal gates, so the index is relative within each strain
Method in brief: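 Plasmids in a pooled yeast library fused tiled 17-residue yeast protein peptides downstream of GFP and also expressed Cherry. Mid-log cultures grown without leucine were sorted into four equal gates by GFP/Cherry fluorescence ratio. Each gate's plasmids were PCR-amplified and Illumina-sequenced, and reads were matched to strains by barcodes. The protein stability index is derived by multiplying each gate's read frequency by its gate number and summing the results.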

Sequence: RSCVSNSNENGTLERIK [RPN4]
- protein stability index (doa10∆): 2.98 ± 0.07
- protein stability index (pdr5∆): 3.07 ± 0.077
- protein stability index (san1∆): 2.54 ± 0.065
- protein stability index (ubr1∆): 2.95 ± 0.057

Sequence: ALNDVYLDADVAKLANW [YML031W/NDC1]
- protein stability index (doa10∆): 2.85 ± 0.2
- protein stability index (pdr5∆): 3.52 ± 0.22
- protein stability index (san1∆): 3.67 ± 0.22
- protein stability index (ubr1∆): 3.73 ± 0.24

Sequence: RSPTRRLELLQLSPVKN [SMC4]
- protein stability index (doa10∆): 1.38 ± 0.26
- protein stability index (pdr5∆): 1.64 ± 0.19
- protein stability index (ubr1∆): 1.68 ± 0.13

Sequence: MNECIADQDMEDEDMVD [ESC2]
- protein stability index (doa10∆): 3.18 ± 0.072
- protein stability index (pdr5∆): 3.35 ± 0.11
- protein stability index (san1∆): 3.3 ± 0.048
- protein stability index (ubr1∆): 3.08 ± 0.058

Sequence: RGHVLQFEWHQNSLLTN [SNF2]
- protein stability index (doa10∆): 1.93 ± 0.055
- protein stability index (pdr5∆): 2.3 ± 0.064
- protein stability index (san1∆): 3.11 ± 0.056
- protein stability index (ubr1∆): 2.6 ± 0.048

Sequence: QFLRLIFVSILSDRANK [ARP9]
- protein stability index (doa10∆): 1.64 ± 0.065
- protein stability index (pdr5∆): 1.65 ± 0.075
- protein stability index (san1∆): 2.18 ± 0.087
- protein stability index (ubr1∆): 1.2 ± 0.027

Sequence: VFLSNLVETCLNDLVES [BRR2]
- protein stability index (doa10∆): 1.41 ± 0.05
- protein stability index (pdr5∆): 1.98 ± 0.04
- protein stability index (san1∆): 1.57 ± 0.11
- protein stability index (ubr1∆): 1.89 ± 0.039

Sequence: TLLRLNELLDLTESQTE [RPN5]
- protein stability index (doa10∆): 2.39 ± 0.089
- protein stability index (pdr5∆): 2.18 ± 0.092
- protein stability index (san1∆): 2.71 ± 0.11
- protein stability index (ubr1∆): 2.74 ± 0.072

Sequence: KIHQQLLFKARLQQQQA [GAL11]
- protein stability index (doa10∆): 1.3 ± 0.088
- protein stability index (pdr5∆): 1.26 ± 0.089
- protein stability index (san1∆): 1.25 ± 0.15
- protein stability index (ubr1∆): 1.33 ± 0.069

Sequence: DINTVNTNLMNGVNVQI [GRR1]
- protein stability index (doa10∆): 3.21 ± 0.097
- protein stability index (pdr5∆): 3 ± 0.087
- protein stability index (san1∆): 2.98 ± 0.074
- protein stability index (ubr1∆): 3.06 ± 0.073

Sequence: MEDKISEFLNVPFESLQ [YIL149C/MLP2]
- protein stability index (doa10∆): 3.18 ± 0.09
- protein stability index (pdr5∆): 3.35 ± 0.079
- protein stability index (san1∆): 3.33 ± 0.067
- protein stability index (ubr1∆): 3.06 ± 0.057

Sequence: PRYTYHTIFSDVCKTRF [YML031W/NDC1]
- protein stability index (doa10∆): 2.77 ± 0.055
- protein stability index (pdr5∆): 3 ± 0.051
- protein stability index (san1∆): 2.62 ± 0.035
- protein stability index (ubr1∆): 2.82 ± 0.055

Sequence: CFSQENIEEMARVILYL [SIN4]
- protein stability index (doa10∆): 2.47 ± 0.083
- protein stability index (pdr5∆): 2.76 ± 0.14
- protein stability index (san1∆): 2.79 ± 0.095
- protein stability index (ubr1∆): 2.76 ± 0.054

Sequence: SSLASQDVDFYKNLDRG [RRP6]
- protein stability index (doa10∆): 1.31 ± 0.084
- protein stability index (pdr5∆): 1.37 ± 0.067
- protein stability index (ubr1∆): 1.64 ± 0.088

Sequence: DMATGSNDTTAFNDSCV [SRB8]
- protein stability index (doa10∆): 2.73 ± 0.05
- protein stability index (pdr5∆): 3.07 ± 0.06
- protein stability index (san1∆): 3.14 ± 0.045
- protein stability index (ubr1∆): 2.86 ± 0.037

Sequence: SYKDSGLWGFSTATRNV [COR1]
- protein stability index (doa10∆): 2.98 ± 0.086
- protein stability index (pdr5∆): 3.11 ± 0.094
- protein stability index (san1∆): 3.19 ± 0.064
- protein stability index (ubr1∆): 3.16 ± 0.084

Sequence: ILSINAIDYEPEYEKAM [SMC1]
- protein stability index (doa10∆): 3.29 ± 0.076
- protein stability index (pdr5∆): 3.1 ± 0.068
- protein stability index (san1∆): 3.05 ± 0.049
- protein stability index (ubr1∆): 3.13 ± 0.043

Sequence: ILKSLKNRSNRKRFHSQ [YOR098C/NUP1]
- protein stability index (doa10∆): 3.08 ± 0.061
- protein stability index (pdr5∆): 3.22 ± 0.066
- protein stability index (san1∆): 3.03 ± 0.081
- protein stability index (ubr1∆): 3.11 ± 0.042

Sequence: ERHQAGKNQWFFSKLRF [RPL27A]
- protein stability index (doa10∆): 3.19 ± 0.091
- protein stability index (pdr5∆): 3.24 ± 0.092
- protein stability index (san1∆): 3.09 ± 0.075
- protein stability index (ubr1∆): 3.18 ± 0.046

Sequence: ENVILGQMAPIGTGAFD [RPO21]
- protein stability index (doa10∆): 2.33 ± 0.11
- protein stability index (pdr5∆): 2.37 ± 0.13
- protein stability index (san1∆): 2.36 ± 0.12
- protein stability index (ubr1∆): 2.54 ± 0.056

Sequence: KEKAPTIIFIDELDAIG [RPT5]
- protein stability index (doa10∆): 2.57 ± 0.068
- protein stability index (pdr5∆): 2.35 ± 0.041
- protein stability index (san1∆): 1.85 ± 0.11
- protein stability index (ubr1∆): 2.4 ± 0.052

Sequence: LVQMYIGEGAKLVRDAF [RPT5]
- protein stability index (san1∆): 2.51 ± 0.27

Sequence: LAAPKKLNDSQRKTVNS [POP1]
- protein stability index (doa10∆): 3.18 ± 0.075
- protein stability index (pdr5∆): 2.98 ± 0.12
- protein stability index (san1∆): 3.02 ± 0.065
- protein stability index (ubr1∆): 3.34 ± 0.075

Sequence: RVVVPQALRVLRLKPGR [RPL16B]
- protein stability index (doa10∆): 1.24 ± 0.087
- protein stability index (pdr5∆): 1.58 ± 0.06
- protein stability index (san1∆): 1.36 ± 0.12
- protein stability index (ubr1∆): 1.77 ± 0.1

Sequence: DKSTTQLRKEIQLLDEN [MED11]
- protein stability index (doa10∆): 1.56 ± 0.093
- protein stability index (pdr5∆): 1.54 ± 0.086
- protein stability index (san1∆): 1.71 ± 0.17
- protein stability index (ubr1∆): 1.55 ± 0.068

Sequence: LDVDPAKRIRVSHHATT [RPB2]
- protein stability index (doa10∆): 3.02 ± 0.06
- protein stability index (pdr5∆): 3.04 ± 0.06
- protein stability index (san1∆): 2.79 ± 0.082
- protein stability index (ubr1∆): 3 ± 0.044

Sequence: YYLWTGKQVFSLLIKPN [RPO31]
- protein stability index (doa10∆): 1.53 ± 0.21
- protein stability index (ubr1∆): 1.59 ± 0.2

Sequence: LNVQVWHIEETGEWFSS [ITC1]
- protein stability index (doa10∆): 1.83 ± 0.051
- protein stability index (pdr5∆): 2.03 ± 0.05
- protein stability index (san1∆): 2.39 ± 0.059
- protein stability index (ubr1∆): 2.41 ± 0.043

Sequence: KAASSTRIFQALPRKLR [POP1]
- protein stability index (doa10∆): 2.64 ± 0.1
- protein stability index (pdr5∆): 3.36 ± 0.15
- protein stability index (san1∆): 2.76 ± 0.12
- protein stability index (ubr1∆): 2.77 ± 0.086

Sequence: GKTDYYQRKRLVTQHKA [RPL5]
- protein stability index (ubr1∆): 3.69 ± 0.22

Sequence: KGIDSVVRRRFRGNISQ [RPL32]
- protein stability index (doa10∆): 2.82 ± 0.14
- protein stability index (pdr5∆): 2.94 ± 0.26
- protein stability index (ubr1∆): 2.89 ± 0.12

Sequence: IRNARSIRAEAVAASST [POP1]
- protein stability index (doa10∆): 3.13 ± 0.24
- protein stability index (pdr5∆): 2.54 ± 0.23
- protein stability index (san1∆): 2.5 ± 0.14
- protein stability index (ubr1∆): 2.19 ± 0.1

Sequence: LGSSEAENLLQLKTGLA [YGL172W/NUP49]
- protein stability index (pdr5∆): 3.29 ± 0.18
- protein stability index (san1∆): 2.98 ± 0.085
- protein stability index (ubr1∆): 2.5 ± 0.2

Sequence: LMISPKDEETTEKARLI [RRI2]
- protein stability index (doa10∆): 2.8 ± 0.15
- protein stability index (pdr5∆): 3.27 ± 0.18
- protein stability index (ubr1∆): 3.04 ± 0.14

Sequence: NGVVIATEKKSSSPLAM [PRE8]
- protein stability index (doa10∆): 2.91 ± 0.19
- protein stability index (pdr5∆): 3 ± 0.17
- protein stability index (san1∆): 2.55 ± 0.26
- protein stability index (ubr1∆): 3.07 ± 0.11

Sequence: IRKIVRKDENQFSYVDS [AAR2]
- protein stability index (doa10∆): 3.18 ± 0.12
- protein stability index (pdr5∆): 3.14 ± 0.12
- protein stability index (san1∆): 3.03 ± 0.073
- protein stability index (ubr1∆): 3.12 ± 0.076

Sequence: IRYNSVEIQEVPRTADR [RPC82]
- protein stability index (doa10∆): 2.52 ± 0.063
- protein stability index (pdr5∆): 2.64 ± 0.044
- protein stability index (san1∆): 2.88 ± 0.079
- protein stability index (ubr1∆): 2.79 ± 0.048

Sequence: NSNTNLNSLSPQAILAK [SWI1]
- protein stability index (doa10∆): 2.28 ± 0.046
- protein stability index (pdr5∆): 1.93 ± 0.033
- protein stability index (san1∆): 1.92 ± 0.054
- protein stability index (ubr1∆): 2.02 ± 0.03

Sequence: NPLMYSGGNNTATIINN [PCI8]
- protein stability index (doa10∆): 2.93 ± 0.064
- protein stability index (pdr5∆): 2.9 ± 0.057
- protein stability index (san1∆): 3.12 ± 0.05
- protein stability index (ubr1∆): 3.11 ± 0.045

Sequence: CDGDTVWDKFAVNLLNC [SSN2]
- protein stability index (doa10∆): 3.29 ± 0.1
- protein stability index (pdr5∆): 3.3 ± 0.098
- protein stability index (san1∆): 3.14 ± 0.07
- protein stability index (ubr1∆): 3.11 ± 0.1

Sequence: TNQLVLLQKMLNLLNYQ [YML103C/NUP188]
- protein stability index (doa10∆): 1.99 ± 0.04
- protein stability index (pdr5∆): 1.43 ± 0.03
- protein stability index (san1∆): 1.29 ± 0.056
- protein stability index (ubr1∆): 1.43 ± 0.031

Sequence: EANWPLPVNIRRIIQNA [RPO21]
- protein stability index (doa10∆): 1.77 ± 0.088
- protein stability index (pdr5∆): 1.37 ± 0.089
- protein stability index (ubr1∆): 1.04 ± 0.064

Sequence: NQQAQARQQVAQQLRNQ [GAL11]
- protein stability index (doa10∆): 2.49 ± 0.065
- protein stability index (pdr5∆): 2.94 ± 0.13
- protein stability index (san1∆): 2.45 ± 0.14
- protein stability index (ubr1∆): 2.34 ± 0.1

Sequence: ITIQLTRDVEPENLQVT [BRR2]
- protein stability index (doa10∆): 2.79 ± 0.083
- protein stability index (pdr5∆): 3.04 ± 0.13
- protein stability index (ubr1∆): 2.85 ± 0.078

Sequence: SCTFWSDKESNAYGFIE [YJL039C/NUP192]
- protein stability index (doa10∆): 2.9 ± 0.079
- protein stability index (pdr5∆): 2.65 ± 0.083
- protein stability index (san1∆): 2.83 ± 0.07
- protein stability index (ubr1∆): 3.26 ± 0.09

Sequence: VVKGRVEKTLLSDVAFY [RPO31]
- protein stability index (doa10∆): 2.16 ± 0.22
- protein stability index (pdr5∆): 3.14 ± 0.23
- protein stability index (ubr1∆): 2.52 ± 0.15

Sequence: KSLKNNFYRPLLRSVLV [YML103C/NUP188]
- protein stability index (doa10∆): 1.94 ± 0.051
- protein stability index (pdr5∆): 1.87 ± 0.075
- protein stability index (san1∆): 2.04 ± 0.085
- protein stability index (ubr1∆): 2.29 ± 0.051

Sequence: ASILLALTQMDQDKVNF [RPB3]
- protein stability index (doa10∆): 3.18 ± 0.11
- protein stability index (pdr5∆): 3.28 ± 0.094
- protein stability index (san1∆): 3.24 ± 0.073
- protein stability index (ubr1∆): 2.93 ± 0.056

Sequence: YINVNPQEETITFLIEK [ECM29]
- protein stability index (doa10∆): 3.23 ± 0.095
- protein stability index (pdr5∆): 2.96 ± 0.089
- protein stability index (san1∆): 2.91 ± 0.064
- protein stability index (ubr1∆): 3.17 ± 0.06
